We go through 1 sequence from PMC4043820.

Series [1] addresses OsWRKY53SA S43A;S72A;S77A;S89A;S96A;S108A (Oryza sativa (rice)) (UniProt A7BEY7). The series can be described thus: EMSA. The conditions noted are these: 12 mM HEPES-KOH pH 8.0, 60 mM KCl, 4 mM MgCl2, 1 mM EDTA, 12% glycerol, 1 mM DTT, 2.5 mM PMSF, 0.1 ug protein in 20 ul, 20 min on ice; 6% PAGE in 1x TBE at ….
The target in series [2] is OsWRKY53SD S43D;S72D;S77D;S89D;S96D;S108D (Oryza sativa (rice)) (UniProt A7BEY7). As to the kind of experiment: EMSA. The conditions noted are these: 12 mM HEPES-KOH pH 8.0, 60 mM KCl, 4 mM MgCl2, 1 mM EDTA, 12% glycerol, 1 mM DTT, 2.5 mM PMSF, 0.1 ug protein in 20 ul, 20 min on ice; 6% PAGE in 1x TBE at …. On the technique in general: Mobility shift assays separate free from complexed probe on a gel.
OsWRKY53SD S43D;S72D;S77D;S89D;S96D;S108D (Oryza sativa (rice)), sequence (A7BEY7 entry or part of it S43D S72D S77D S89D S96D S108D): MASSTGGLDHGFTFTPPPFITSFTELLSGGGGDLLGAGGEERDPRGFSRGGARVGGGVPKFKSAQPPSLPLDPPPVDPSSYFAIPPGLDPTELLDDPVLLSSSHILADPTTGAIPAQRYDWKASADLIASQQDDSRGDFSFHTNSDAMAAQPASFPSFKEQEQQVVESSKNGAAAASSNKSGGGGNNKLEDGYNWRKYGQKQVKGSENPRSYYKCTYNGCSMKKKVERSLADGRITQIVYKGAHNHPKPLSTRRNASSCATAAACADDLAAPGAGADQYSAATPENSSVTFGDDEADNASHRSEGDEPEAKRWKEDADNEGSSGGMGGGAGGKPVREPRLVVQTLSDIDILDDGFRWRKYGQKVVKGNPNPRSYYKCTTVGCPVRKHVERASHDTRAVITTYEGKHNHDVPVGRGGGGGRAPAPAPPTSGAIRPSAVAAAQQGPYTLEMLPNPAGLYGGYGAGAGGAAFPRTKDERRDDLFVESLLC

OsWRKY53SA S43A;S72A;S77A;S89A;S96A;S108A (Oryza sativa (rice)), sequence (A7BEY7 entry or part of it S43A S72A S77A S89A S96A S108A): as the sequence (A7BEY7 entry or part of it S43D S72D S77D S89D S96D S108D) above, with D43A, D72A, D77A, D89A, D96A, D108A counted along it

On to “TTTGGGGATGCTTCGGCGAAGGGGGTGAGGTCAAAGCTCGTGCGGTTTGACCGGTCAGACGAGGCGGCTGAGGCTCGCGC (double strand) [W-box probe (W)]”, for which the binding entry in series [1] and in series [2] was “binds” throughout.
